According to the supplement of paper PMC12042874:
± gives the uncertainty stated by the source.

assay: amyloid nucleation score (Sup35N fusion, yeast selection) (log enrichment); library NNK3; higher = more nucleation; inactive = no reads after selection
Procedure, shortened: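 Plasmid inserts were Illumina-sequenced at input and output from psi-negative yeast expressing Sup35N fused to peptides of 20 random codons. The yeast were induced with 100 μM copper sulfate for 24 hours and grown 7 days at 30°C on medium lacking adenine and uracil, and sequences with under 100 input reads were excluded. Nucleation score is the DiMSum log enrichment of output over input reads, centred on the mode score of non-aggregating sequences.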

Substance	amyloid nucleation score
TVYFNYRVWHTMARKQKLSS	inactive
SVRLTIEMVTAVFRWGESMR	0.233 ± 0.32
WFVRLLGSAFN	inactive
GSTCSDLLALYPWYVRIKEI	inactive
VRMFRDLLYPAEYLS	inactive
GYDGRGSHAL	inactive
IEGSYIDMFLYSYLMSGSLI	inactive
EGFYTFALGRICGFWSYNFC	1.23 ± 0.14
FNDNVVVVSDNVVRRITSKS	inactive
KDCMVYWLRI	inactive
WYSRLRLEQMRKWCHRVL	inactive
LNQLGSCY	-0.019 ± 1.1
SSRRYS	inactive
FIVNSLPDLNALAHMSALLY	inactive
LYAQNLV	inactive
YIGRAGQFDRRFFGSLCCAM	inactive
NTINVSPVLIDN	inactive
VGKLLVGTWWHGSYRSMSKR	inactive
RLLLGTIYSFLKLHGDFNGR	inactive
ISINLIVRCRRLHTPHLPVK	inactive
VQWSVSFLSVVGVPWYRRLV	inactive
NFAGMFVGLMPWHVCDTTCR	inactive
VCFRNAFFHCSQMRTCNRVI	0.262 ± 0.74

Substance	amyloid nucleation score
LFVIHAGMNSTSFFKNMMSC	inactive
WTWTSLSSLMWSV	inactive
DQSNSSEGILCYNLCVLMTE	2.43 ± 0.072
EYQLYCVYHLYANLDTVVRT	inactive
IVRFNSLHYFWETDKTI	inactive
VQGSTIGG	inactive
LRGDGLMIVIVVWCIYGYLC	inactive
YQRYGRGFLRVSSFSLDSRM	-0.352 ± 0.81
RRKRYCISDLA	inactive
FLSGVTWHAYMIHSVFMDRC	0.881 ± 0.21
SYYSSDKMIVSVGLLKRDAK	inactive
SMCDMYYLVACTPHMIVQLY	-0.111 ± 0.69
ITSEIMAIWFDICKAWDLCV	inactive
FRVSVIFIFGCHMFGVLMTP	inactive
WNEAWWNNRLGLARMVVLLG	inactive
LVLSVWKLKLSGLALIFWYG	inactive
HLRVRCLSF	inactive
ARCECESSTRVSSLVYLSRE	inactive
LFASWEDFLASSRYWRLEKR	0.356 ± 0.39
TRDFRTCNGLANKVRSKVCS	inactive
GLCKS	inactive
FELSYNWYNSNFVRRNVPFP	inactive
LRWFFVHPQWIRGCGLAMLS	inactive

Substance	amyloid nucleation score
VVRCLLFVQLGCSKNLVAFQ	1.12 ± 0.12
YSDKDSLGSGNSFFSFSEKW	inactive
LSSSGIMFCFFVDGLRSLV	inactive
LHLNGAYMAFLIVMSCMHFS	inactive
MLHLGTCEIILAYHHDMKML	inactive
VVEGSILACVNRGGKKYYDC	inactive
KLFRIKNGSVEVIWYRNMCQ	0.973 ± 0.14
KFVDDRKVCLVLHH	inactive
YSCSYNTSTN	-0.52 ± 0.68
IMLLVGAWTVSYNSCGSDAR	inactive
RLVLRDPTSTVIVRVPLGFV	-0.547 ± 1.9
KCFISYR	inactive
INLGMP	-0.279 ± 0.52
GGSSYTYHNSVDLLDWFCYV	1.23 ± 0.11
IWPWYCKHNIFVKYHRLVER	inactive
ETYWQINSTECKFTSFQRLF	inactive
IDFILWQFVMF	inactive
GRSGYH	inactive
IDLNMQMELHGWHRVCWGCY	0.657 ± 0.22
GRKVCLSRPTRFNSFLWMVY	inactive
RNEWCFSKPILEYHCRMDVF	inactive
ELSHQVCYSVGCACETSDGQ	inactive
FALNL	inactive

Substance	amyloid nucleation score
NQMEN	0.843 ± 0.36
HMLLVD	inactive
DGQARISRYSTWLEEFLRCG	inactive
KRSSA	inactive
VMWPIGSCDRE	inactive
IVAGVMADNDIRQDCAWKFK	1.34 ± 0.12
WASYDGPEKRRNHTRYYISM	inactive
VTYNTSSGRVYGTGHNWFQG	inactive
PTCGMDFVLQEYTKT	inactive
LCGPSDLAT	0.096 ± 0.66
LKVVSKVLYNSSYPVRYVLR	inactive
IKDGFQGNVFFAVDCFVAYD	inactive
SSYFYHNVILPTHIYNFSVI	2.27 ± 0.08
SNDVKNVHP	inactive
TYWVGWML	inactive
KMACTCAESTVIIS	inactive
NNEYQRKNLWFKGKVWLCMY	inactive
THTTAS	inactive
CYYDSLYCVEFHFCNYIVVL	-0.127 ± 0.99
DFEVSMGQR	-0.015 ± 0.8
RTLRRLTGNSILFRYWSNKG	inactive
TYHSCY	inactive
LGNSPVHST	inactive

Substance	amyloid nucleation score
RVAQTAVRVSWALDRFYLWD	inactive
VGRHAYRC	inactive
CIMALGSNVLFRLEN	1.51 ± 0.091
YLRHIVFNRQDYMSTRLCKH	inactive
RNYFMVLGRKYVFLFFWMMM	inactive
IKGIPKSIGSSSLGLHNHTV	inactive
MIGLDDWVLALRVRRCSLLV	inactive
VLLAIGWVGGIFCGIWAGSH	inactive
SSTRIMNISVSRWSEMDKPD	inactive
LYDLTGPVSNLTISLLNVEY	inactive
IQPCFIGIGVGYSRFVGRFF	0.982 ± 0.22
CNTGPEIMASVAKVDVWVIK	1.65 ± 0.11
SSKSWLRYRVDEHTVSTFGF	inactive
MIYGNWHIWFDVTAVKYEVG	inactive
DRRKAEFILTMGPEWYQQLN	inactive
LFEWMRCMTVFMVGAAYAAT	inactive
DGNGLNTRGNLTSGIFHRQY	inactive
TMHYFQNTAIDRYEMTAP	inactive
YFSVLSESVSHSDVFRS	inactive
VDEFFGRGVHWLTVRLGLGM	inactive
LLCMWFCKSRLPRCSKCCSR	inactive
WYRMLFIRSKDSMDKMPIFL	inactive
DYTSYILLS	inactive

Substance	amyloid nucleation score
IDTWFISFRCMFSGNYMYFL	inactive
KKSKRISLGR	inactive
CLSFYCTVSKKVRRKAVTPF	0.807 ± 0.2
GFGESGNR	inactive
NVRVYSFQMTVECKELLDSQ	inactive
NYSMNARGPVKDLAVFGSRG	inactive
NKNQIDQASSWFPR	inactive
GCFDVPNCVSFQSFRACGKG	inactive
KTCIVCMLHL	3.32 ± 0.068
KRLQWMYYL	inactive
HYTTASFDVDNPLRLLLLLQ	inactive
YITNVQVIGMMVINSNHKGV	3.42 ± 0.058
ISGIHITSELRRGTPERCSH	inactive
IISSSL	inactive
MCSRCLFHCGLVVCRVVVPA	inactive
GPFVSFYFVFTRFNQTSLGF	1.57 ± 0.066
HTTALIGANDSA	0.024 ± 0.46
LSEWMSESGNFEFCVASLYR	inactive
NAALIVCLITFYVLGIFLAG	inactive
WPDLQLLSSALPTPLQFSWL	inactive
SLNCDGSSDGRCAAYQIWLC	inactive
VLRSNHFD	inactive
RSIDGKSYNLAYLLGGLRNS	2.56 ± 0.065

Substance	amyloid nucleation score
HEGCSMSGRIPLLSRYMGYG	inactive
KRHYMGTAQGCMGIVLKVFY	inactive
SYRLSYLYPSTHHYLLNCLL	inactive
IEQPY	inactive
DNSFSPLASGLYQLKGVELI	inactive
VSNLLIKVTRHASYDQSS	inactive
FVWNMFSASLIKI	inactive
KVRRGQLKIRS	inactive
KLRFKLRSLVNNNCGVVTRA	inactive
SRSLWTLNIVFRHDCYTGKL	-0.05 ± 0.57
YESHLLRNRDSRTYSR	inactive
WVSFCVCWNFNLY	3.18 ± 0.064
CSKIFGRERMFYRVDMVS	inactive
LALCSTCFNLVYIICVGKKW	inactive
FLISIWGGIGNDNVSVVGVG	inactive
KNSTWMSESVNNRFFIQVGA	inactive
IRHRTIWSYGSFY	inactive
VHLGSFDFIFLNMSSTRSLG	inactive
NLSHDCPPGPAKARYYRNVK	inactive
SIWEHRSNS	inactive
ECSRNAVCF	inactive
